Experimental data from paper PMC4734654 (Nature, 2015).

Experiments:
[1] = target: OsSWEET2b, crystallisation construct (C-terminal 15 residues removed, reductively methylated) (Oryza sativa); assay: crystal structure
[2] = target: the molecule itself; assay: cross-linking

Row | stoichiometry N [1] | Molecule | stoichiometry N [2]
1 | 3 | OsSWEET2b, crystallisation construct (C-terminal 15 residues removed, reductively methylated) (natural protein) | 
2 |  | OsSWEET2b, purified in DDM for glutaraldehyde cross-linking (natural protein) MDSLYDISCFAAGLAGNIFALALFLSPVTTFKRILKAKSTERFDGLPYLFSLLNCLICLWYGLPWVADGRLLVATVNGIGAVFQLAYICLFIFYADSRKTRMKIIGLLVLVVCGFALVSHASVFFFDQPLRQQFVGAVSMASLISMFASPLAVMGVVIRSESVEFMPFYLSLSTFLMSASFALYGLLLRDFFIYFPNGLGLILGAMQLALYAYYSSNSLEVLFQ | 3
